This is an account of results in article PMC12808100, “The non-catalytic DNA polymerase ε subunit is an NPF motif recognition protein” (Nature Communications, 2025).

The target in assay [1] is NPF motif peptide of DONSON (residues 71-88). Kind of assay: native holdup (nHU) titration with dot blot; DONSON_71-88-saturated streptavidin resin mixed with control resin at various proportions; extracts of HEK293T cells expressing HA-tagged POLE2 variants; 4 °C, 2 h; depletion quantified with an antibody against the HA tag; apparent.
Assay [2] has as its target non-catalytic subunit of DNA polymerase ε (POLE2), endogenous (human (endogenous in Jurkat)) (UniProt P56282). The experiment in a line: native holdup (nHU) with mass spectrometry; estimate from the difference between the depletion of POLE and of POLE2 by the same NPF motif bait, with about 1 nM of each assumed in the extract; apparent.

Sequence of catalytic subunit of DNA polymerase ε (POLE), endogenous (Q07864 whole entry): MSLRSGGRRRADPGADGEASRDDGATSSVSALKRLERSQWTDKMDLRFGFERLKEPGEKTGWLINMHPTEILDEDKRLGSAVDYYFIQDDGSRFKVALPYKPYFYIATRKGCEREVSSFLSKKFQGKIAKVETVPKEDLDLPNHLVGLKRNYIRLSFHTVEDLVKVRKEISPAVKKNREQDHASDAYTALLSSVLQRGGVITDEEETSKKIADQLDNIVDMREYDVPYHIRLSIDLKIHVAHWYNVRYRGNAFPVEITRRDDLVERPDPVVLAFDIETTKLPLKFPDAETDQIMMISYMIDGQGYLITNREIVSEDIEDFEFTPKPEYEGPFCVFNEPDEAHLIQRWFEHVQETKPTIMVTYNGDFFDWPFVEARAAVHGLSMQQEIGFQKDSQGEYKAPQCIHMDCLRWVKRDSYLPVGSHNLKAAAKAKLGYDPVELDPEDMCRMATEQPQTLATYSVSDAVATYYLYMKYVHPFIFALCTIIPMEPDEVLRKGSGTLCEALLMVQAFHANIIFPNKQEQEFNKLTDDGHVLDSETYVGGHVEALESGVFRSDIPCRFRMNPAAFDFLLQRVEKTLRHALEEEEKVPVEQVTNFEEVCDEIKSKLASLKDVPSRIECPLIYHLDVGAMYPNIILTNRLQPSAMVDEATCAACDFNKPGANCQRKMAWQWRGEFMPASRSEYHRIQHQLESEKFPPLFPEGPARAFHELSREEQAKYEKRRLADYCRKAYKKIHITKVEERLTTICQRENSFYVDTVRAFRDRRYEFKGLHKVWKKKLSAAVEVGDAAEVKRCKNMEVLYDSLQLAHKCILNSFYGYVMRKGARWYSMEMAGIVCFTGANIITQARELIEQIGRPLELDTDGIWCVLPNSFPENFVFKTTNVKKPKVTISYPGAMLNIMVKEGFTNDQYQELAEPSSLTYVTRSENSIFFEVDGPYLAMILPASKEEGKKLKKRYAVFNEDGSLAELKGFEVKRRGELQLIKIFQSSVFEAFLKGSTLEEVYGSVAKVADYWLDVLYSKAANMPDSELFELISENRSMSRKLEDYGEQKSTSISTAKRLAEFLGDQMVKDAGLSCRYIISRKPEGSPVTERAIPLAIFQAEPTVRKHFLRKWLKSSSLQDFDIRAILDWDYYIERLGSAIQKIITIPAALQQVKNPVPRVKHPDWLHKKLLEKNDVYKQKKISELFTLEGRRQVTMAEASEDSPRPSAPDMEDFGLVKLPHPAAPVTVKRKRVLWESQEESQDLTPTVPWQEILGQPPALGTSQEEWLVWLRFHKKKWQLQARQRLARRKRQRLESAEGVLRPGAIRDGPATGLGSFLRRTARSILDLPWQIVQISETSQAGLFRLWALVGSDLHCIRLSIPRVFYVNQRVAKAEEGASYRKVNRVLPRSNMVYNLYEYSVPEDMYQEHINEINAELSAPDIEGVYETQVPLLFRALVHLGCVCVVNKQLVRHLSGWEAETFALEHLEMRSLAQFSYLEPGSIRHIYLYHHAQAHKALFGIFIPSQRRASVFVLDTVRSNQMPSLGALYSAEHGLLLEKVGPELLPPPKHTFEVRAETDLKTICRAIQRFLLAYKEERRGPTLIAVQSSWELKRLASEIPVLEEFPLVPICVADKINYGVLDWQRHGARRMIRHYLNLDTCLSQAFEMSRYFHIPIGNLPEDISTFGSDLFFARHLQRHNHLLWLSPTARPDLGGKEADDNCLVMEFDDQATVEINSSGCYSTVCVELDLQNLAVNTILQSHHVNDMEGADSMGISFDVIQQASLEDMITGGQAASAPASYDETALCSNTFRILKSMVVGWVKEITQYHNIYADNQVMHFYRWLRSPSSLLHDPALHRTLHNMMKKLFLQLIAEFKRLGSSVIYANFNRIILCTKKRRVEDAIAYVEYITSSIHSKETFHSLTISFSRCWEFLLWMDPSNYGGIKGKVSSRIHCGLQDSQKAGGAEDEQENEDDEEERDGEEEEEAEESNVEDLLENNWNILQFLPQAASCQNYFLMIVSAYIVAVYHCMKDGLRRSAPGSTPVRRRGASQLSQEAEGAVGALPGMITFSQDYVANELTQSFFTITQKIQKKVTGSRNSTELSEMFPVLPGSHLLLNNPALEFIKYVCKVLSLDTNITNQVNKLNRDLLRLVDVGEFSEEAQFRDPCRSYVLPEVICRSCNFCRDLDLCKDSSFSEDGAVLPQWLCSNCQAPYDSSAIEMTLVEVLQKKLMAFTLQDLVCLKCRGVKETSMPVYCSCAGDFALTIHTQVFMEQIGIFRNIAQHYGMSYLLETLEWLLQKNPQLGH
Sequence of non-catalytic subunit of DNA polymerase ε (POLE2), endogenous (human (endogenous in Jurkat)) (P56282 whole entry): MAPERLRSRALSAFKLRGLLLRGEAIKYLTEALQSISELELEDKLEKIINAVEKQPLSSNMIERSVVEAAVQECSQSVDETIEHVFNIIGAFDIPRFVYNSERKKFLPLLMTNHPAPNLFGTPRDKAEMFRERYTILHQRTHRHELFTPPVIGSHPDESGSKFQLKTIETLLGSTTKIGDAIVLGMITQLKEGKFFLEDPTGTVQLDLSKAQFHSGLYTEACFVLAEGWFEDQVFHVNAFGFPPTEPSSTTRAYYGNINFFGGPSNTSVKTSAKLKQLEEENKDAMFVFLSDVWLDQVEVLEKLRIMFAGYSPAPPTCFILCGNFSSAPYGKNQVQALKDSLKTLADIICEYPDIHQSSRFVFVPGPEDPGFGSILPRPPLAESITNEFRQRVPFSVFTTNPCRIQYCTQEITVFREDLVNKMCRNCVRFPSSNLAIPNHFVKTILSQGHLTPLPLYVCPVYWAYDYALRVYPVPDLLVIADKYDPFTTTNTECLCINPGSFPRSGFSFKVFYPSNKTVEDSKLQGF
Sequence of HA-MBP-POLE2 (P56282 whole entry): as above

For the substance “HA-MBP-POLE2 (from UniProt P56282 1-527) (natural protein)”, the fold weaker binding than HA-POLE2 in assay [1] is 10 fold.

In the case of “catalytic subunit of DNA polymerase ε (POLE), endogenous (from UniProt Q07864 1-2286) (natural protein)”, the Kd in assay [2] is 0.1 to 0.3 nM.
